Data from patent publication US20240100133A1 (SAINT LOUIS UNIVERSITY, published 2024).

Key:
[1] = target: T1, Cluster of Differentiation 14 (CD14), human, endogenous in primary human monocytes (human, UniProt P08571 20-345); assay: co-immunoprecipitation with anti-GzmA from lysates of GzmA-treated human monocytes, western blot for CD14
T1 construct: whole, on cells; also called CD14 receptor
T1 sequence (looked up): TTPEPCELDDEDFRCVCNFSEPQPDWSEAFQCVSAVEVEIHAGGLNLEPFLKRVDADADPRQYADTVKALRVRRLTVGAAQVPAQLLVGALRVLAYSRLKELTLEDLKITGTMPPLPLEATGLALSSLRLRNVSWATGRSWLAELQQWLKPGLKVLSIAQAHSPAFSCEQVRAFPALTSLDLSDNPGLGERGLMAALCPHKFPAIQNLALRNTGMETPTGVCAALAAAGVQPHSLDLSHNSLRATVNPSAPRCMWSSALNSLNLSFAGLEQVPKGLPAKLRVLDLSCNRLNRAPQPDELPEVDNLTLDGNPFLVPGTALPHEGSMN

[2] = target: T2, Toll-like Receptor 4 (TLR4), human, endogenous in primary human monocytes (human, UniProt O00206 24-839); assay: co-immunoprecipitation with anti-GzmA from lysates of GzmA-treated human monocytes, western blot for TLR4
T2 construct: whole, on cells
T2 sequence (O00206 24-839): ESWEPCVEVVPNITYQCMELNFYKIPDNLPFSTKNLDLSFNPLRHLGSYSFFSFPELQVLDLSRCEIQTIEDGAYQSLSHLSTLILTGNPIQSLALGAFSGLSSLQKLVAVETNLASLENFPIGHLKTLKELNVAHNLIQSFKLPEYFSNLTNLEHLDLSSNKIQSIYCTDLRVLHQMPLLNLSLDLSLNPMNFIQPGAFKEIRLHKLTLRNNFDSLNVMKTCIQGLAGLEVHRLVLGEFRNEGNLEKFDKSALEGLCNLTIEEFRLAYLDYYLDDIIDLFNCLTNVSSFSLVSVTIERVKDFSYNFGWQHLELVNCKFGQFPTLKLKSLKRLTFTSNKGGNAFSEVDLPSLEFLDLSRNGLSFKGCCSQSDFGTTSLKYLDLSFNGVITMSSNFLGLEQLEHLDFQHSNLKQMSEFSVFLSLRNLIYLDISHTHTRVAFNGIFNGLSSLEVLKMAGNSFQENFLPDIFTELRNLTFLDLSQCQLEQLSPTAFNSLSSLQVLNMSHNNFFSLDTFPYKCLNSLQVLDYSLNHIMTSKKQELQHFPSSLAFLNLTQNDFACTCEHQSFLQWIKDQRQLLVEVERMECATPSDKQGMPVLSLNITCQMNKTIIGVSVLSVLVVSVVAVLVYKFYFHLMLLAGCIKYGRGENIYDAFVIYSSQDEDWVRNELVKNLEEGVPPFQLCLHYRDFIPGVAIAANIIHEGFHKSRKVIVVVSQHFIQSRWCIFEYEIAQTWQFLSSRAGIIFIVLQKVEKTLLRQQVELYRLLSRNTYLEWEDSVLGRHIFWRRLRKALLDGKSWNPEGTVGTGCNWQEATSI

B1: Monomeric Granzyme A C93S, recombinant human, His-tagged (GzmA-C93S) (enzyme)
chain: IIGGNEVTPHSRPYMVLLSLDRKTICAGALIAKDWVLTAAHCNLNKRSQVILGAHSITREEPTKQIMLVKKEFPYPSYDPATREGDLKLLQLMEKAKINKYVTILHLPKKGDDVKPGTMCQVAGWGRTHNSASWSDTLREVNITIIDRKVCNDRNHYNFNPVIGMNMVCAGSLRGGRDSCNGDSGSPLLCEGVFRGVTSFGLENKCGDPRGPGVYILLSKKHLNWIIMTIKGAV
notes: Forms only monomers; also called monomeric GzmA; GzmA-monomer; not shown: His tag
binding result [1]: no binding | binding result [2]: no binding
